Consider 3 molecules from patent US20190359693A1 (Janssen / Centocor, published 2019).

Where two headings read alike, the source gives them in different places. Where only a bound is given, the exact number is not on record here.

What is called Kd is the free concentration of one partner at which half of the binding sites on the other are occupied at equilibrium, for simple one-to-one binding. In general, pIC50 refers to the IC50 on a negative log10 scale, so that one unit is a factor of ten. Read a low pIC50 as a high IC50.

Test [1] deals with T1, HA of H3N2 A/HK/1/68 (influenza A virus, UniProt Q91MA7 17-530). The experiment in a line: BLI steady state.
For test [2], the target named is HA of H7N7 A/Common Teal/MPF139/07 (influenza A virus). The experiment in a line: cell-based or functional assay.
Another test deals with HA of H7N9 A/Anhui/1/13 (influenza A virus). The experiment in a line: cell-based or functional assay.
The target of test [3] is HA of H7N9 A/Shanghai/1/13 (influenza A virus). Kind of test: cell-based or functional assay.
Test [4] addresses HA of H7N9 A/Shanghai/2/13 (influenza A virus). Kind of test: cell-based or functional assay.
The target of test [5] is HA of H10N8 A/Jiangxi/346/2013 (influenza A virus). Kind of test: cell-based or functional assay.
Test [6] has as its target HA of H10N3 A/Common Teal/MPH11/08 (influenza A virus). The experiment in a line: cell-based or functional assay.
For test [7], the target named is HA of H10N9 A/Northern Shoveler/MPE2531/08 (influenza A virus). The experiment in a line: cell-based or functional assay.
The target in test [8] is HA of H1N1 A/Puerto Rico/8/34-MA (influenza A virus). The experiment in a line: cell-based or functional assay.
Test [9] has as its target HA of H5N1 A/PR8 H5N1 HK97 (influenza A virus). The experiment in a line: cell-based or functional assay.
Test [10] has as its target HA of H3N2 A/HK/1/68-MA (influenza A virus). Kind of test: cell-based or functional assay.
Test [11] addresses T1, HA of H3N2 A/HK/1/68. Kind of test: cell-based or functional assay.
Test [12] addresses T2, HA of H7N7 A/Netherlands/219/2003 (influenza A virus, UniProt P36346 19-563). The experiment in a line: cell-based or functional assay.
Test [13] has as its target HA of H2N2 A/Guiyang/1/57 (influenza A virus). The experiment in a line: cell-based or functional assay.
The target in test [14] is HA of H3N2 A/Panama/2007/99 (influenza A virus). Kind of test: cell-based or functional assay.
For test [15], the target named is HA of H4 A/WF/HK/MPA892/06 (influenza A virus). The experiment in a line: cell-based or functional assay.
Test [16] concerns the target HA of H7N7 A/PR8 H7N7-NY (influenza A virus). Kind of test: cell-based or functional assay.
The target in test [17] is HA of H10N7 A/Chick/Germany/N/49 (influenza A virus). Kind of test: cell-based or functional assay.
For test [18], the target named is HA of H1N1 A/Mississippi/03/01 274H (influenza A virus). Kind of test: cell-based or functional assay.
Test [19] addresses HA of H1N1 A/Solomon Islands/3/2006 (IVR 145) (influenza A virus). Kind of test: cell-based or functional assay.
Another test addresses HA of H1N1 A/WSN/33 (influenza A virus, UniProt P03454 18-565). The experiment in a line: cell-based or functional assay.
The next test deals with HA of H1N1 A/HK/54/98 (influenza A virus). The experiment in a line: cell-based or functional assay.
For test [20], the target named is HA of H1N1 A/Christchurch/16/10 (influenza A virus). The experiment in a line: cell-based or functional assay.
In test [21] the target is HA of H1N2 A/Env/HK/MPU3156/05 (influenza A virus). Kind of test: cell-based or functional assay.
Test [22] has as its target HA of H5N1 A/Indonesia/5/05 (influenza A virus). Kind of test: cell-based or functional assay.
Test [23] has as its target HA of H5N2 A/Eurasian Wigeon/MPF461/07 (influenza A virus). Kind of test: cell-based or functional assay.
The target of test [24] is HA of H5N2 A/Eurasian Wigeon/HK/MPF333/07 (influenza A virus). Kind of test: cell-based or functional assay.
Test [25] addresses HA of H2N2 A/AnnArbor/23/57 (influenza A virus). Kind of test: cell-based or functional assay.
The target in test [26] is HA of H2N2 A/Env/HK/MPU3156/05 (influenza A virus). Kind of test: cell-based or functional assay.
The target of test [27] is HA of H6N1 A/Eurasian Wigeon/MPG1884/09 (influenza A virus). Kind of test: cell-based or functional assay.
The target of test [28] is HA of H6N1 A/Taiwan/2/2013 (influenza A virus). Kind of test: cell-based or functional assay.
The target of test [29] is HA of H6N8 A/Eurasian Wigeon/MPD411/07 (influenza A virus). Kind of test: cell-based or functional assay.
The target in test [30] is HA of H11N9 A/Northern Pintail/MPC2085/07 (influenza A virus). The experiment in a line: cell-based or functional assay.
For test [31], the target named is HA of H9N2 A/Ck/HK/SSP176/09 (influenza A virus). Kind of test: cell-based or functional assay.
For test [32], the target named is HA of H9N2 A/Great Cormorant/MP2934/04 (influenza A virus). Kind of test: cell-based or functional assay.
Test [33] has as its target HA of H9N2 A/HK/466419/09 (influenza A virus). The experiment in a line: cell-based or functional assay.
Test [34] concerns the target HA of H8N4 A/Eurasian Wigeon/MPH571/08 (influenza A virus). The experiment in a line: cell-based or functional assay.
Test [35] addresses HA of H8N2 A/Env/MPJ1258/09 (influenza A virus). Kind of test: cell-based or functional assay.
The target in test [36] is HA of H12N5 A/Env/MPK659/09 (influenza A virus). Kind of test: cell-based or functional assay.
Another test deals with HA of H3N2 A/Fukui/45/04 (influenza A virus). Kind of test: cell-based or functional assay.
The target in another test is HA of H3N2 A/Aichi/2/68 (influenza A virus, UniProt P03437 17-566). Kind of test: cell-based or functional assay.
Test [37] addresses HA of H3N2 A/Hiroshima/52/05 (influenza A virus). The experiment in a line: cell-based or functional assay.
Test [38] addresses HA of H3N2 A/Johannesburg/33/94 (influenza A virus). The experiment in a line: cell-based or functional assay.
In the next test the target is HA of H3N2 A/Perth/16/09 (influenza A virus). The experiment in a line: cell-based or functional assay.
Test [39] deals with HA of H3N2 A/Victoria/210/09 (influenza A virus). The experiment in a line: cell-based or functional assay.
A further test deals with HA of H3N2 A/HK/1174/99 (influenza A virus). Kind of test: cell-based or functional assay.
The target of test [40] is HA of H4N1 A/Northern Pintail/MPB1368/06 (influenza A virus). Kind of test: cell-based or functional assay.
For test [41], the target named is HA of H4N6 A/Great Cormorant/MPB1683/06 (influenza A virus). The experiment in a line: cell-based or functional assay.
Test [42] concerns the target HA of H14N5 A/Mallard/Astrakhan/263/1982 (influenza A virus). The experiment in a line: cell-based or functional assay.
Test [43] addresses HA of H7N7 A/Northern Shoveler/MPF518/08 (influenza A virus). The experiment in a line: cell-based or functional assay.
Test [44] concerns the target T2, HA of H7N7 A/Netherlands/219/2003. The experiment in a line: AlphaLISA competition vs CR9114. In general terms: Bead proximity is the source of the signal in Alpha formats.
Test [45] has as its target HA of H1N1 A/Brisbane/59/07 (influenza A virus). Kind of test: cell-based or functional assay.
Test [46] concerns the target T1, HA of H3N2 A/HK/1/68. Kind of test: BLI (Octet). (BLI is a label-free optical method that tracks binding on a fibre tip over time.)
The target of test [47] is HA of H3N2 A/HK/1/68-MA (influenza A virus). The experiment in a line: cell-based or functional assay. The source holds these as a separate data set.
In test [48] the target is HA of H3N2 A/Panama/2007/99 (influenza A virus). The experiment in a line: cell-based or functional assay. The source holds these as a separate data set.
For test [49], the target named is HA of H4 A/WF/HK/MPA892/06 (influenza A virus). The experiment in a line: cell-based or functional assay. This is another data set of the same source.
Test [50] concerns the target HA of H7N7 A/PR8 H7N7-NY (influenza A virus). Kind of test: cell-based or functional assay. The source holds these as a separate data set.
Test [51] has as its target HA of H10N7 A/Chick/Germany/N/49 (influenza A virus). Kind of test: cell-based or functional assay. The source holds these as a separate data set.

B1: SD1036 (VHH)
VHH: EVQLVESGGGLVQAGGSLKLSCAASGRTYAMGWFRQAPGKEREFVAHINALGTRTYYSDSVKGRFTISRDNAKNTEYLEMNNLKPEDTAVYYCTAQGQWRAAPVAVAAEYEFWGQGTQVTVSS
notes: llama sdAb
Molecule B1 had a Kd with HA of H3N2 A/HK/1/68 [1] of 2 nM. Besides, the VNA titer came to 18.3 nM in [2]; 65.9 nM in the test with HA of H7N9 A/Anhui/1/13; 101 nM in test [3]; 33 nM in [4]; 83.9 nM in test [5]; 28.9 nM in test [6]. Also, the VNA titer is 19.9 nM in test [7]; more than 1000 nM in test [8]; more than 1000 nM in test [9]; 73.2 nM with HA of H3N2 A/HK/1/68-MA [10]; 115 nM with HA of H3N2 A/HK/1/68 [11]; 28.9 nM in test [12]. Also, the VNA titer is more than 1000 nM in test [13]; more than 1000 nM in test [14]; 40.4 nM in [15]; 8.8 nM in the test with HA of H7N7 A/PR8 H7N7-NY [16]; 22.2 nM in test [17]; more than 1000 nM in [18]. The VNA titer (in test [19]; with HA of H1N1 A/WSN/33; in the test with HA of H1N1 A/HK/54/98; in test [20]; in test [21]; in [22]) was more than 1000 nM in each case. The VNA titer in [23], in test [24], in test [25], in test [26], in test [27] and in test [28] was more than 1000 nM each time. The VNA titer in test [29] was more than 1000 nM; in test [30], more than 1000 nM; in test [31], more than 1000 nM; in test [32] it was 677 nM; in test [33], more than 1000 nM; in test [34] it was more than 1000 nM. Moreover, the VNA titer in test [35] was more than 1000 nM; in [36], more than 1000 nM; with HA of H3N2 A/Fukui/45/04 it was more than 1000 nM; with HA of H3N2 A/Aichi/2/68 it was 6.5 nM; in [37], more than 1000 nM; in [38], 601 nM. For the same molecule, the VNA titer was 76.4 nM with HA of H3N2 A/Perth/16/09; 540 nM in [39]; more than 1000 nM with HA of H3N2 A/HK/1174/99; 80.7 nM in test [40]; 44.5 nM in [41]; 16.2 nM in test [42]. Further, in [43], the VNA titer amounted to 44.7 nM. Further, in test [44], the negative-log IC50 (pIC50) is 9.3.

B2: SD1047 (VHH)
VHH: EVQLVESGGGLVQAGGSLRISCAASGRTYAMAWFRQAPGKEREFVAHINALGTRTYYSDSVKDRFTISRDNAKNTEYLQMNSLKPEDTAVYYCVAGGQWRAAPVAAAESYDFWGQGTQVTVSS
On to B2, for which the VNA titer (in test [8]; with HA of H3N2 A/HK/1/68-MA [10]; in test [45]) was more than 1000 nM in each case.

B3: SD1016 (VHH)
VHH: EVQLVESGGGLVQAGGSLRLSCVASGMFFGIAAMGWYRQAPGKQRELVANITSDFSTNYADSVKDRFTISRDNAENTVYLQMNSLKPEDTAVYYCAADSLGTGWRHYYYWGQGTQVTVSS
notes: llama sdAb
Regarding B3, the binding result with HA of H3N2 A/HK/1/68 [46] was “no binding (tested: HA 20 µg/mL)”. In addition, the VNA titer (with HA of H3N2 A/HK/1/68-MA [47]; in test [48]; in test [49]; in the test with HA of H7N7 A/PR8 H7N7-NY [50]; in test [51]) was more than 1000 nM in each case.
